The data set addresses T1, P97 cilium adhesin peptidic complex (F2P97 / R1-containing section, SELEX target) (Mycoplasma hyopneumoniae).
T1 chain: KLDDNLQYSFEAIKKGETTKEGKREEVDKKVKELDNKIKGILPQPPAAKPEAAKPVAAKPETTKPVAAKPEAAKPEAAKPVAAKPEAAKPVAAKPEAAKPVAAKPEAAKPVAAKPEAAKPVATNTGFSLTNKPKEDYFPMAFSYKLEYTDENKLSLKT
The data set can be described thus: ELISA; reverse screening on streptavidin plate, 37 C. Conditions: tags: His tag (Ni-NTA captured); label: biotin in reverse screening. On the procedure: Reverse Screening of Aptamer—Selected ssDNA molecules from each individual clone were biotinylated using the B-T3 which is same sequence with 5′ primer (T3 primer), and Klenow fragment (2 unit/ml). To prepare single stranded biotin conjugated APT3Cooc10 aptamer for the reverse screening. T3 Primer was Biotin labelled. A 96-well flat bottom ELISA plate was prepared by coating each well with 100 μl of streptavidin (100 μg/ml) diluted in 0.1 M NaHCO₃ following by a 37° C. overnight incubation. Following several washings with PBS, wells were blocked with 200 μl of PBS containing 1% BSA for 2 hours at room temperature and subsequent washing three times with PBS-T (10 mM PBS containing 0.05% (v/v) Tween-20). Thereafter, 100 μl of 2.5 pmole/100 μl biotinylated-ssDNA were added to the wells and incubated at 37° C. for 2 hours followed by washing four times with PBS-T. T3 primer was used as negative control. Following washing, 100 μl of fluid containing 2 μg histidine labelled P97 peptidic complex were added to the indicated wells and incubated at 37° C. for 2 hours. […]
Enzyme-Linked Immunosorbent Assay (ELISA)—The ELISA tests were carried-out following all the guidelines provided with the DAKO kit. Reaction was terminated with 100 μl of 0.5M H₂SO₄, and the plates were read with a multichannel spectrophotometer at 450 nm.
On the technique in general: ELISA stands for enzyme-linked immunosorbent assay.

This is an account of results in patent publication US20220186225, “COMPOUNDS FOR DETECTING AND TREATING MYCOPLASMA HYOPNEUMONIAE” (AEROVIRUS TECHNOLOGIES INC., published 2022).

B1: APT3Cooc3 (ssDNA)
DNA: GCCTGTTGTGAGCCTCCTAACTAGCTCGTAGAAAAAAAATATAGCGTGTGCTGGGACTGCTCGGGATTGCGGACACATGCTTATTCTTGTCTCCC
For B1, the binding result is reported as “binds”.

B2: APT3Histo1 (ssDNA)
DNA: GCCTGTTGTGAGCCTCCTAACCGCACGTGGGTATTCTAAGTGCGGTAGCTCAATGGTGAGCGATGAGCATCATGCTTATTCTTGTCTCCC
For the molecule B2, the binding result is listed as “binds”.
